Results taken from patent US20260274928A1.

Target: 9-strain panel of authentic SARS-CoV-2 viral isolates
Experiment: cell-based or functional assay

B1: S2V29-v37.2 (antibody, V domains shown)
VH: EVQLVESGGSVVQPGRALRLSCAASGITFSSFGMYWVRQAPGKGLEWLGYIAYDGSDTYYADSVKGRFTISRDNSKNTLYLQMNSLRIEDTAVYYCAKDYYPLLSYYYGLDVWGQGTTVTVSS
VL: QSVLTQPRSVSGSPGQSVTISCTGTSSDVGAYNYVSWYQQHPGKAPKFMIYDVDQRPSGVPDRFSGSKSGNTASLIISGLQAEDEADYYCSSYAGSYIWVFGGGTQLTVL
Question: Which IC50, authentic virus neutralization does the source give for B1 here?
Answer: The IC50, authentic virus neutralization was 1.3 to 9.6 ng/mL.

Question: And the median IC50, authentic virus neutralization?
Answer: Its median IC50, authentic virus neutralization is 2 ng/mL.
